Experimental data from patent US20180049457A1, “ENZYMATIC SYNTHESIS OF SOLUBLE GLUCAN FIBER” (E I DU PONT DE NEMOURS AND COMPANY, priority 2014, published 2018).

Assay: GTF activity of strains (PAHBAH assay)
Format: biochemical
Conditions: enzyme expressed in B. subtilis host
How it was run: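 Glucosyltransferase (GTF) activity of the bacterial strains was measured with the PAHBAH assay. The enzymes tested were truncated GTF variants produced in a Bacillus subtilis expression host. Measurements were split across three separate experiments, and each activity value is reported together with the experiment it came from because results varied slightly between experiments.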

B1: GTF3808NT: N terminal-only truncated GTF3808 from Streptococcus sp. SR4, SEQ ID NO: 108, strain SG1313 (protein)
chain: INGKQYYVNSDGSVRKNFVFEQDGKSYYFDAETGALATKSQDEFSTEPIKATVDFSSGNQLYKNDDKSLDQLDTFITADAWYRPKSILKDGKTWTASTEADKRPLLMVWWPDKSTQVNYLNYMQNQGLGAGSFSTNSSQESLDQAAKMVQTKIEERIAREGNTNWLRTSIDQFIKTQPGWNSSTENSSYDHLQGGQLLFNNSKGDTGNRTSHANSDYRLLNRTPTNQTGTRKYFKDNSIGGLEFLLANDIDNSNPAVQAEQLNWLHFMMNIGSIMANDPTANFDGLRVDALDNVDADLLQIASDYFKAAYGVDKSEANAIKHLSYLEAWSANDPYYNKDTKGAQLPIDNALRNALTNLLMRDKNTRMQLGDMTAFINSSLNPRGANDKNGERMANYIFTRAHDTEAQTIIQRIIRDRINPNLFGYNFTRDEIKKAFEIYNEDIDKAHKTYASYNLPSVYALMLTNKDSVTRVYYGDLYREDGHYMAKKTPYFDAIDTLLRARIKYVAGGQDMEVKKVGNDGLLTSVRYGKGANNRTDLGTSETRTQGMGVIMTNNYDFRLGSNETVTMNMGRAHRNQLYRPLLLTTKDGIATYLNDSDVPKNLLKRTDWNGNLTFNANDVFGVENVQVSGYLGVWVPYGAKANQDARTQPSNRANSDGQVYKSSAALDSQVMYEAFSNFQAFADDQPELYMNRVLAKNTDLLKAWGITSVGLPPQYVSSKDGTFLDSTIDNGYAFDDRYDMALSQNNKYGSLEDLLNVLRALHKDGIQAIADWVPDQIYNLPGKEVVNATRVNGYGNHQVGYQIIDQAYVANTRTDGTDYQGKYGGAFLDELKAKYPSIFNRVQISNGKQLPTNEKITKWSAKYFNGTNILGRGINYVLRDDKTNQYFNTSANSQLLPTPLRDTGAITSTQVFQRRGQDVYFLRDNQAVKNEFVQDGNGNWYYFGGDGKMTKGAQNINNKDYYFFDNGIQLRNALRRASNGYTYYYGLDGAMVKNAFVDFDDKHKQVRAFTTQGTMVVGNLHWSGHHFYFDRETGIQAKDRVVRTDDGKLHYYVAETGDMGRNVFATDSSTGKRYYFDADGNTVTGSRVIDGKTYYFNQDGSVGTAYSNRADSIIFENGKARYITPAGEIGRSIFVYNPATKAWNYFDKEGNRVTGRQYIDGHLYYFKEDGSQAKGEIIEENGIKYYYEPESGILASGRYLQVGDDQWMYFKQDGSLAIGQVRADHGYLKYFDKNGIQVKGKTVVEDGKTYYYDAHSGALVTSSFAEIAPNQWSYFNTDGQALKGKWTINGKEYYFDENGIQYKGKAIKVGSRYKYYDENDGQPVTNRFAQIEPNVWAYFGADGYAVTGEQVINGQHLYFDQSGRQVKGAYVTVNGQRRYYDANTGEYVPGR
modifications: Streptococcus sp. SR4
Experiment Number 3
  GTF activity of strains: Acitivity: 34.9 U/mL

B2: GTF0459NTnativeT5: T5 C-terminal truncation of GTF0459, SEQ ID NO: 126, strain SG1297 (protein)
chain: INGKQYYVNSDGSVRKNFVFEQDGKSYYFDAETGALATKSQDEFSTEPIKAAVDFSSGNQLYKNDNKSLDQLDTFITADAWYRPKSILKDGKTWTASTEADKRPLLMVWWPDKSTQVNYLNYMQNQGLGAGSFSTNSSQESLNLAAKAVQTKIEERIAREGNTNWLRTSIDQFIKTQPGWNSSTENSSYDHLQGGQLLFNNSKGDTGNRTSYANSDYRLLNRTPTNQSGTRKYFKDNSIGGLEFLLANDIDNSNPAVQAEQLNWLHFMMNIGSIMANDPTANFDGLRVDALDNVDADLLQIASDYFKAVYGVDKSEANAIKHLSYLEAWSANDPYYNKDTKGAQLPIDNALRNALTNLLMRDKNTRMQLGDMTAFMNSSLNPRGANDKNGERMANYIFTRAHDTEAQTIIQRIIRDRINPNLFGYNFTRDEIKKAFEIYNADINTAHKTYASYNLPSVYALMLTNKDSVTRVYYGDLYREDGHYMAKKTPYFDAIDTLLRARIKYVAGGQDMEVKKVGNDGLLTSVRYGKGANNSTDWGTTETRTQGMGVILTNNYDFRLGSNETVTMNMGRAHRNQLYRPLLLTTKDGLATYLNDSDVPSNLLKRTDWNGNLTFNANDVFGVENVQVSGYLGVWVPVGAKANQDARTQPSNRANSDGQVYKSSAALDSQVMYEAFSNFQAFADDQPELYMNRVLAKNTDLLKAWGVTSVGLPPQYVSSKDGTFLDSTIDNGYAFDDRYDMALSQNNKYGSLEDLLNVLRALHKDGIQAIADWVPDQIYNLPGKEVVNATRVNGYGYHQQGYQIVDQAYVANTRTDGTDYQGRYGGAFLDELKAKYPSIFNRVQISNGKQLPTNEKITKWSAKYFNGTNILGRGINYVLRDDKTNQYFNTSANGQLLPTPLRDTGAITSTQVFQRRGQDVYFLRDNQVIKNEFVQDGNGNWYYFGADGKMTKGAQNINSKDYYFFDNGVQLRNALRRASNGYTYYYGLDGAMIKNAFVDFDDKHQ
modifications: T5 C-terminal truncation of GTF0459
Experiment Number 2
  GTF activity of strains: Acitivity: 52 U/mL

B3: GTF0459NTnativeT6: T6 C-terminal truncation of GTF0459, SEQ ID NO: 134, strain SG1298 (protein)
chain: INGKQYYVNSDGSVRKNFVFEQDGKSYYFDAETGALATKSQDEFSTEPIKAAVDFSSGNQLYKNDNKSLDQLDTFITADAWYRPKSILKDGKTWTASTEADKRPLLMVWWPDKSTQVNYLNYMQNQGLGAGSFSTNSSQESLNLAAKAVQTKIEERIAREGNTNWLRTSIDQFIKTQPGWNSSTENSSYDHLQGGQLLFNNSKGDTGNRTSYANSDYRLLNRTPTNQSGTRKYFKDNSIGGLEFLLANDIDNSNPAVQAEQLNWLHFMMNIGSIMANDPTANFDGLRVDALDNVDADLLQIASDYFKAVYGVDKSEANAIKHLSYLEAWSANDPYYNKDTKGAQLPIDNALRNALTNLLMRDKNTRMQLGDMTAFMNSSLNPRGANDKNGERMANYIFTRAHDTEAQTIIQRIIRDRINPNLFGYNFTRDEIKKAFEIYNADINTAHKTYASYNLPSVYALMLTNKDSVTRVYYGDLYREDGHYMAKKTPYFDAIDTLLRARIKYVAGGQDMEVKKVGNDGLLTSVRYGKGANNSTDWGTTETRTQGMGVILTNNYDFRLGSNETVTMNMGRAHRNQLYRPLLLTTKDGLATYLNDSDVPSNLLKRTDWNGNLTFNANDVFGVENVQVSGYLGVWVPVGAKANQDARTQPSNRANSDGQVYKSSAALDSQVMYEAFSNFQAFADDQPELYMNRVLAKNTDLLKAWGVTSVGLPPQYVSSKDGTFLDSTIDNGYAFDDRYDMALSQNNKYGSLEDLLNVLRALHKDGIQAIADWVPDQIYNLPGKEVVNATRVNGYGYHQQGYQIVDQAYVANTRTDGTDYQGRYGGAFLDELKAKYPSIFNRVQISNGKQLPTNEKITKWSAKYFNGTNILGRGINYVLRDDKTNQYFNTSANGQLLPTPLRDTGAITSTQVFQRRGQDVYFLRDNQVIKNEFVQDGNGNWYYFGADGKMTKGAQNINSKDYYFFDNGVQLRNALRRASNGYTYYYGLDGAMIKNAFVDFDDKHQQVRAFTTQ
modifications: T6 C-terminal truncation of GTF0459
Experiment Number 1
  GTF activity of strains: Acitivity: 28.5 U/mL

B4: GTF0459nativeNT: truncated Streptococcus sp. C150 Gtf-S glucosyltransferase, SEQ ID NO: 19, strain SG1273 (protein, listed as Streptococcus sp.)
chain: MINGKQYYVNSDGSVRKNFVFEQDGKSYYFDAETGALATKSQDEFSTEPIKAAVDFSSGNQLYKNDNKSLDQLDTFITADAWYRPKSILKDGKTWTASTEADKRPLLMVWWPDKSTQVNYLNYMQNQGLGAGSFSTNSSQESLNLAAKAVQTKIEERIAREGNTNWLRTSIDQFIKTQPGWNSSTENSSYDHLQGGQLLFNNSKGDTGNRTSYANSDYRLLNRTPTNQSGTRKYFKDNSIGGLEFLLANDIDNSNPAVQAEQLNWLHFMMNIGSIMANDPTANFDGLRVDALDNVDADLLQIASDYFKAVYGVDKSEANAIKHLSYLEAWSANDPYYNKDTKGAQLPIDNALRNALTNLLMRDKNTRMQLGDMTAFMNSSLNPRGANDKNGERMANYIFTRAHDTEAQTIIQRIIRDRINPNLFGYNFTRDEIKKAFEIYNADINTAHKTYASYNLPSVYALMLTNKDSVTRVYYGDLYREDGHYMAKKTPYFDAIDTLLRARIKYVAGGQDMEVKKVGNDGLLTSVRYGKGANNSTDWGTTETRTQGMGVILTNNYDFRLGSNETVTMNMGRAHRNQLYRPLLLTTKDGLATYLNDSDVPSNLLKRTDWNGNLTFNANDVFGVENVQVSGYLGVWVPVGAKANQDARTQPSNRANSDGQVYKSSAALDSQVMYEAFSNFQAFADDQPELYMNRVLAKNTDLLKAWGVTSVGLPPQYVSSKDGTFLDSTIDNGYAFDDRYDMALSQNNKYGSLEDLLNVLRALHKDGIQAIADWVPDQIYNLPGKEVVNATRVNGYGYHQQGYQIVDQAYVANTRTDGTDYQGRYGGAFLDELKAKYPSIFNRVQISNGKQLPTNEKITKWSAKYFNGTNILGRGINYVLRDDKTNQYFNTSANGQLLPTPLRDTGAITSTQVFQRRGQDVYFLRDNQVIKNEFVQDGNGNWYYFGADGKMTKGAQNINSKDYYFFDNGVQLRNALRRASNGYTYYYGLDGAMIKNAFVDFDDKHQQVRAFTTQGTMVVGNLHWSGHHFYFDRETGIQAKDRIVRTDDGKLHYYVAQTGDMGRNVFATDSRTGKRYYFDADGNTVTGSRVIDGKTYYFNQDGSVGTAYSNRADSIIFENGKARYITPAGEIGRSIFVYNPATKAWNYFDKEGNRVTGRQYIDGNLYYFKEDGSQVKGAIVEENGIKYYYEPGSGILASGRYLQVGDDQWIYFKHDGSLAIGQVRADGGYLKYFDKNGIQVKGQTIVEDGHTYYYDADSGALVTSSFAEIAPNQWAYFNTEGQALKGKWTINGKEYYFDQNGIQYKGKAVKVGSRYKYYDENDGQPVTNRFAQIEPNVWAYFGADGYAVTGEQVINGQHLYFDQSGRQVKGAYVTVNGQRRYYDANTGEYIPGR
Experiment Number 1
  GTF activity of strains: Acitivity: 26.5 U/mL
Experiment Number 2
  GTF activity of strains: Acitivity: 39.4 U/mL
